From publication PMC4975481, “Importance of Hypervariable Region 2 for Stability and Affinity of a Shark Single-Domain Antibody Specific for Ebola Virus Nucleoprotein” (PLoS ONE, 2016)

Target: T1, Ebola virus Viral Protein 40 (Ebola virus (Zaire ebolavirus), strain …, UniProt Q05128)
T1 construct: also called VP40; VP 40; source: bought: IBT Bioservices
Assay: SPR
Conditions: both partners purified

T1 sequence (Q05128 whole entry): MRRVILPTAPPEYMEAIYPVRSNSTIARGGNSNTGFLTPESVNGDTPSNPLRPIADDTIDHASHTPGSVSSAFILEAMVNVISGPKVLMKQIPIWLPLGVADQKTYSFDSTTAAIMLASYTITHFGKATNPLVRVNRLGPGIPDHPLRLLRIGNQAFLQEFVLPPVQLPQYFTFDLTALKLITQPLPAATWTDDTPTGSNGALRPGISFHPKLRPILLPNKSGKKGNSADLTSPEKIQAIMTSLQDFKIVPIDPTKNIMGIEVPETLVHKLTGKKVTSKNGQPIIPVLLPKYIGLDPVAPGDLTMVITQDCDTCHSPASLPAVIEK

B1: shark096 (VHH)
VHH: RVDQTPRSVTKETGESLTINCVLRDASYAVGSTCWYRKKSGSTNEESISKGGRYVETVNSGSKSFSLRINDLTVEDGGTYRCGVSTYNWCGVRGLGCVHGACGDGTAVTVN
notes: also called unfused sdAb portion of DSTL096; parental sdAb
- binding result: no binding
